Results on one variant are retold here after article PMC6916386.

B1: Single stranded nucleic acid binding protein (Sbp1), wild type, galactose-inducible with ZZ (protein A) tag, from wild-type yeast R153 [modified: arginine-methylated in yeast … (parent)
chain 1: MSAEIEEATNAVNNLSINDSEQQPRAPTHKTVIDPEDTIFIGNVAHECTEDDLKQLFVEEFGDEVSVEIPIKEHTDGHIPASKHALVKFPTKIDFDNIKENYDTKVVKDREIHIKRARTPGQMQRGGFRGRGGFRGRGGFRGGFRGGYRGGFRGRGNFRGRGGARGGFNGQKREKIPLDQMERSKDTLYINNVPFKATKEEVAEFFGTDADSISLPMRKMRDQHTGRIFTSDSANRGMAFVTFSGENVDIEAKAEEFKGKVFGDRELTVDVAVIRPENDEEEIEQETGSEEKQE
chain 2: MTDETAHPTQSASKQESAALKQTGDDQQESQQQRGYTNYNNGSNYTQKKPYNSNRPHQQRGGKFGPNRYNNRGNYNGGGSFRGGHMGANSSNVPWTGYYNNYPVYYQPQQMAAAGSAPANPIPVEEKSPVPTKIEITTKSGEHLDLKEQHKAKLQSQERSTVSPQPESKLKETSDSTSTSTPTPTPSTNDSKASSEENISEAEKTRRNFIEQVKLRKAALEKKRKEQLEGSSGNNNIPMKTTPENVEEKGSDKPEVTEKTKPAEEKSAEPEVKQETPAEEGEQGEKGQIKEESTPKVLTFAERLKLKKQQKEREEKTEGKENKEVPVQEETKSAIESAPVPPSEQVKEETEVAETEQSNIDESATTPAIPTKSDEAEAEVEAEAGDAGTKIGLEAEIETTTDETDDGTNTVSHILNVLKDATPIEDVFSFNYPEGIEGPDIKYKKEHVKYTYGPTFLLQFKDKLNVKADAEWVQSTASKIVIPPGMGRGNRSRDSGRFGNNSSRGHDFRNTSVRNMDDRANSRTSSKRRSKRMNDDRRSNRSYTSRRDRERGSYRNEEKREDDKPKEEVAPLVPSANRWVPKFKSKKTEKKLAPDGKTELLDKDEVERKMKSLLNKLTLEMFDAISSEILAIANISVWETNGETLKAVIEQIFLKACDEPHWSSMYAQLCGKVVKELNPDITDETNEGKTGPKLVLHYLVARCHAEFDKGWTDKLPTNEDGTPLEPEMMSEEYYAAASAKRRGLGLVRFIGFLYRLNLLTGKMMFECFRRLMKDLTDSPSEETLESVVELLNTVGEQFETDSFRTGQATLEGSQLLDSLFGILDNIIQTAKISSRIKFKLIDIKELRHDKNWNSDKKDNGPKTIQQIHEEEERQRQLKNNSRSNSRRTNNSSNRHSFRRDAPPASKDSFITTRTYSQRNSQRAPPPKEEPAAPTSTATNMFSALMGESDDEE

The experiment covers variants of B1. In words: glutathione pull-down, PAP blot band quantified. The conditions noted are these: with eukaryotic translation initiation factor 4G1 fused to GST (eIF4G1-GST) [yeast]; purified eIF4G1-GST incubated with yeast lysate; n = 3; parent: 100; read off a plot.
As to chain 1 MSAEIEEATNAVNNLSINDSEQQPRAPTHKTVIDPEDTIFIGNVAHECTEDDLKQLFVEEFGDEVSVEIPIKEHTDGHIPASKHALVKFPTKIDFDNIKENYDTKVVKDREIHIKRARTPGQMQAGGFAGAGGFAGAGGFAGGFAGGYAGGFAGAGNFAGAGGAAGGFNGQKREKIPLDQMERSKDTLYINNVPFKATKEEVAEFFGTDADSISLPMRKMRDQHTGRIFTSDSANRGMAFVTFSGENVDIEAKAEEFKGKVFGDRELTVDVAVIRPENDEEEIEQETGSEEKQE [chain 1 R125A R129A R131A R135A R137A R141A R145A R149A R153A R155A R159A R161A R165A], the percent of parent was determined as 25 % binding.
